Reference: patent publication US7608262

Biological target: recombinant human TNF (human) (UniProt P01375)
Assay: binding assays of cA2 and recombinant human TNF (format not described)

UniProt P01375, sequence (P01375 77-233 limits assumed): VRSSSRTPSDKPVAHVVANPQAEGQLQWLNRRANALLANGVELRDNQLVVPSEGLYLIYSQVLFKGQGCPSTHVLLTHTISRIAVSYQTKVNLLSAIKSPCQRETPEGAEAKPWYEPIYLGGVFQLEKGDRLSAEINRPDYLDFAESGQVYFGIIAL

Ka: 1.8e+09 M⁻¹
Substance: chimeric A2 (cA2) anti-TNF monoclonal antibody
